The values that follow come from publication PMC4931470.

A word on the stoichiometry N: it is the number of molecules, sites or subunits per partner or assembly.

One assay has as its target E22P-Aβ42. The experiment in a line: SEC; Superdex75 10/300GL, PBS pH 7.4, 0.6 mL/min; Aβ solution 25 μM incubated at 37 °C for the indicated duration, supernatant after centrifugation (17,860 x g, 4 °C, 10 min) analysed; dextran standards.
The next assay deals with E22P-Aβ42 dimer. The description is as above.

On to E22P-Aβ42 (peptide), for which the stoichiometry N in the assay with E22P-Aβ42 lay in the range of 6 to 8.
As for E22P-Aβ42 dimer (peptide), the stoichiometry N in the assay with E22P-Aβ42 dimer lay in the range of 6 to 8.
